Test results published in PMC5011719, “The amyloid fold of Gad m 1 epitopes governs IgE binding” (Scientific Reports, 2016).

Molecular target: the molecule itself
Assay: AFM + dynamic light scattering; fibril dimensions from AFM images (2 nm height, 15 nm diameter, average length 350 nm) and the RH of the monomer from DLS; geometrical calculation

B1: rGad m 1 wt (recombinant Gad m 1, Atlantic cod beta-parvalbumin) (natural protein, UniProt A5I874 1-109, looked up)
chain: MAFAGILNDADITAALAACKAEGSFDHKAFFTKVGLAAKSSADIKKVFEIIDQDKSDFVEEDELKLFLQNFSAGARALSDAETKVFLKAGDSDGDGKIGVDEFGAMIKA
notes: Gad m 1, Atlantic cod beta-parvalbumin; synthetic ORF in pET15b; Monomer in Ca2+, forms amyloids in EDTA; also called rGad wt; not shown: 6XHis, N-terminal, kept
stoichiometry N: 370
